Data as given in doi:10.1101/2020.03.20.999888 (bioRxiv, 2020).

What was measured:
GspM = molecular target: T1, GspM (P. aeruginosa, UniProt P25061 1-174); assay: SEC-MALS
T1 sequence: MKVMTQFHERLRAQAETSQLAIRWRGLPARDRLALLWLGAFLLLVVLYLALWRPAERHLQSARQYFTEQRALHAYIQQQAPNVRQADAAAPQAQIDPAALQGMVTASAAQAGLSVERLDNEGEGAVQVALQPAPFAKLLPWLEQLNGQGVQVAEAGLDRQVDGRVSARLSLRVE

SEC-MALS = molecular target: the molecule itself; assay: SEC-MALS

B1: GspL (natural protein)
chain: MSGVSALFLPPASTAGADGELAVWWVQDGECRRAPFAQALAEIRAPWRLYLPVEAVTACAVNLPTQKARWLRQSLPFAVEEQLADDVEQMHLALGPALADGRHRVFAVQRTWLAAWLALAEGAGKAPASLHVDADCLPGEGSCLFWLEERWLLGGSGAVRLACGSEDWPVLRDSCPPPQRAFAAQEVAPLEGVEVQALAGNPHVWLSEQPLGTDLAQAEFAARQQSSQWRRWRPLLGLVGLWLVLQWGFTLVQAWQLQREGDRYAAQSAELYRQLFPEDRKLINLRAQFDQHLADSASSGGEGQLLGLLGQAATVIGGEPTVSVEQLDFSAARGDVALQVRAPGFDVLERLRSRLSESGLAVQLGSASRDGSTVSARLVIGG
stoichiometry N (GspM): 1 GspL per GspM (printed as 2:2)

B2: GspL^peri (domain or fragment)
chain: WQLQREGDRYAAQSAELYRQLFPEDRKLINLRAQFDQHLADSASSGGEGQLLGLLGQAATVIGGEPTVSVEQLDFSAARGDVALQVRAPGFDVLERLRSRLSESGLAVQLGSASRDGSTVSARLVIGG
stoichiometry N (SEC-MALS): 2
